Biological target: GST-His-ZTL (Arabidopsis thaliana, UniProt Q94BT6 1-609, RED-NHS 2nd Generation fluorescent label (in the MST assay only))
Assay: MST

GST-His-ZTL, sequence (Q94BT6 whole entry): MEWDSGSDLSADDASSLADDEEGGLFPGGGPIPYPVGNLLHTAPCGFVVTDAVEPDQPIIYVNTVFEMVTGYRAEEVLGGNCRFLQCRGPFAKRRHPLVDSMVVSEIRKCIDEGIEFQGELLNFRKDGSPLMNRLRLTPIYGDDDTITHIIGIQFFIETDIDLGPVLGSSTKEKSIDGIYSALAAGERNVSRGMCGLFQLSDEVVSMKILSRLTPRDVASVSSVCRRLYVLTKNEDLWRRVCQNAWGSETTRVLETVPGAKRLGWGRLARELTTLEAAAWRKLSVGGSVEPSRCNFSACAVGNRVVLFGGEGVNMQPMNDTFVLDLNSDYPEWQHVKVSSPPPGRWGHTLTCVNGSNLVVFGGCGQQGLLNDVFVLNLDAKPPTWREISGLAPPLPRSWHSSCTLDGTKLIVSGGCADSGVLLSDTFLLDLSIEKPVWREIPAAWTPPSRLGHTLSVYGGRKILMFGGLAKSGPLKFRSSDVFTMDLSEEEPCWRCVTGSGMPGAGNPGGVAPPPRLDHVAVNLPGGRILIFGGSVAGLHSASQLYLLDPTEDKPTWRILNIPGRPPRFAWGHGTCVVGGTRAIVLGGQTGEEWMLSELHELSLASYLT

B1: His-CHE (natural protein)
chain: not shown
  Kd: 190 nM
